Test results: US20210054062A1

How the values were obtained:
[1] = molecular target: Recombinant human FAM19A5 protein (His-tagged) (human) (UniProt Q7Z5A7); assay: SPR, FAM19A5 immobilised on sensor chip, antibody as analyte, single cycle kinetics, 1:1 fit
[2] = molecular target: human FAM19A5-Fc protein (human), Q7Z5A7; assay: cell-based or functional assay
[3] = molecular target: Recombinant human FAM19A5 protein (His-tagged) (human) (UniProt Q7Z5A7); assay: SPR (Biacore): FAM19A5 protein immobilised on the sensor chip, antibody injected at 1.1 to 90 nM in single cycle kinetics mode, 1:1 binding fit

Chain of Recombinant human FAM19A5 protein (His-tagged) (human) (Q7Z5A7 44-132): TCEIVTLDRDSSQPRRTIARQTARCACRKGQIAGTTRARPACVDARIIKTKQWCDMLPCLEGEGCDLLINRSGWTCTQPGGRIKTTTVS
Chain of human FAM19A5-Fc protein (human), Q7Z5A7 (Q7Z5A7 44-132): as above

Kd [1] [nM] | amount of phagocytosis (uptake of pHrodo Green E. coli BioParticles by BV2 cells) compared to the control group (PBS alone), about 10 hours after BioParticles [2] [%] | koff [3] [s⁻¹] | kon [3] [M⁻¹ s⁻¹] | Binder
0.345 | 86 | 0.000567 | 1.64e+06 | Reference anti-FAM19A5 antibody ("1-65") (antibody, V domains shown) VH: AVTLDESGGGLQTPGGALSLVCKASGFTFSSYQMGWVRQAPGKGLEWVGVINKSGSDTSYGSAVKGRATISRDNGQSTVRLQLNNLRAEDTGTYFCAKGSASYITAATIDAWGHGTEVIVSS VL: ALTQPSSVSANPGETVKITCSGGGSSGYGYGWYQQKSPSSAPLTVIYWNDKRPSDIPSRFSGSKSGSTHTLTITGVQAEDEAVYFCGNDDYSSDSGYVGVFGAGTTLTVL
2.2 | 96 | 0.000822 | 373000 | Anti-FAM19A5 antibody ("SS01-13-s5") (antibody, V domains shown) VH: AVTLDESGGGLQTPGGALRLSCKASGFTFSSYQMGWVRQAPGKGLEWVSAINKSGSDTSYGSAVKGRATISRDNGQSTLYLQMNSLRAEDTAVYFCAKGSASYITAATIDAWGHGTEVIVSS VL: ALTQPSSVSANPGETARITCSGGASSGYGYGWYQQKPSSAPLTVIYKDSERPSDIPSRFSGSSSGSTHTLTISGVQAEDEAVYFCGNDDYSSDSGYVGVFGAGTTLTVL
1.8 | 89 | 0.00183 | 1.02e+06 | Anti-FAM19A5 antibody ("S5-SG") (antibody, V domains shown) VH: AVTLDESGGGLQTPGGALRLSCKASGFTFSSYQMGWVRQAPGKGLEWVSAINKGGSDTSYGSAVKGRATISRDNGQSTLYLQMNSLRAEDTAVYFCAKGSASYITAATIDAWGHGTEVIVSS VL: ALTQPSSVSANPGETARITCSGGASSGYGYGWYQQKPSSAPLTVIYKDSERPSDIPSRFSGSSSGSTHTLTISGVQAEDEAVYFCGNDDYSSDSGYVGVFGAGTTLTVL
